Values of other authors in paper PMC4322731.

Target: Cys12 (UniProt position 13, SVLFVCLGNIC)
Details: not stated (discussed as the resting-state thiolate form of the free enzyme)

For “Bovine heart low molecular weight protein tyrosine phosphatase (BHPTP, LMW-PTP, class II PTP) (Bos taurus)”, which pKa is on record?
The pKa was “less than 4”.
